This series has as its system T1, rVapB47 (rRv3407) (Mycobacterium bovis BCG Moreau), ORF:ad596061.
T1 sequence: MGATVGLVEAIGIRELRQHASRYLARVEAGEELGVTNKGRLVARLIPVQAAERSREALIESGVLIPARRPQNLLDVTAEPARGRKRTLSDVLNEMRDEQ
The series can be described thus: EMSA. For orientation: A gel shift assay detects complexes by their altered migration in electrophoresis.

Two sequences from publication PMC10453824 can be followed below.

Turning to “GGTGCTACATAATTGCGTTGCGCTTACTGGTTGATCAGCCAGCGATCTCCATCGGCGCCCCGCTGATCACCCGGCTAGCCTGCCCGTACACGTCGA (double strand) [07promF-R1 (96 bp)]”, the binding entry is “no binding”.

As to “TCGACGTGTACGGGCAGGCTAGCCGGGTGATCAGCGGGGCGCCGATGGAGATCGCTGGCTGATCAACCAGTAAGCGCAACGCAATTATGTAGCACCATGCGTGCTACCGTTGGGCTTGTGGA (double strand) [07promF-R2 (122 bp)]”, the binding result is reported as “binds”.
